Like-named read-outs stand apart in the source and are kept apart here. Where only a bound is given, the exact number is not on record here.

The target in assay [1] is T1, human TIGIT protein (human, UniProt Q495A1 22-141, limits assumed).
T1 construct: Recombinant protein (Genentech) used in ELISA screening and as SPR analyte; also called TIGIT antigen
T1 sequence: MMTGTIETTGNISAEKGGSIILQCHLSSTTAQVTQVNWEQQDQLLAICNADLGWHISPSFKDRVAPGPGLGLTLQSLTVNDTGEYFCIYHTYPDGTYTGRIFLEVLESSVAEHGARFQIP
Briefly: SPR, captured mAb.

For assay [2], the target named is T2, cynomolgus monkey (cyno) TIGIT protein (cynomolgus monkey, UniProt A0A7N9I9V4 89-209). Briefly: SPR, captured mAb. A general note: In SPR one partner is held on a chip, and binding of the other changes the refractive index at the surface.
T2 sequence (A0A7N9I9V4 entry or part of it): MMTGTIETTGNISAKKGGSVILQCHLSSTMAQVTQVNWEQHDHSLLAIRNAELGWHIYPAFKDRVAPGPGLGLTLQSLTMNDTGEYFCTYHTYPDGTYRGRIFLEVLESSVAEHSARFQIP
In assay [3] the target is T1, human TIGIT protein. Briefly: SPR, bivalent affinity.
Assay [4] addresses T2, cynomolgus monkey (cyno) TIGIT protein. Briefly: SPR, bivalent affinity.
Assay [5] has as its target T1, human TIGIT protein. The assay is described as follows: SPR, monovalent affinity.
The target of assay [6] is T2, cynomolgus monkey (cyno) TIGIT protein. Briefly: SPR, monovalent affinity.
Assay [7] has as its target T3, cynomolgus TIGIT on CHO cells (cynomolgus monkey, UniProt A0A7N9I9V4 89-312).
T3 construct: whole, on cells; also called CHO-cyTIGIT; cyTIGIT
The assay is described as follows: FACS on CHO cells expressing cyno TIGIT, FITC anti-hIgG detection. Here is the method: (§1) Additional in vitro binding studies of the OMT- and SD-derived anti-TIGIT antibody clones were conducted. The OMT- and SD-derived anti-TIGIT clones were tested for binding to human and cyno TIGIT expressed on the surface of CHO cells by FACS analysis. CHO cells were transfected with full-length human TIGIT (CHO-hTIGIT) or cynomologous TIGIT (CHO-cyTIGIT). The TIGIT-expressing CHO cells were incubated with each anti-TIGIT antibody at the indicated concentrations and then detected via a FITC-labeled anti-hIgG antibody (see FIG. 1A) using standard methods. The results, shown in Table 6 and FIGS. 1B-1E, corroborate the results from the BIACORE™ analysis, described above.

The target of assay [8] is T4, full-length human TIGIT on CHO cells (human, UniProt Q495A1 22-244).
T4 construct: also called CHO-hTIGIT; hu TIGIT
T4 sequence: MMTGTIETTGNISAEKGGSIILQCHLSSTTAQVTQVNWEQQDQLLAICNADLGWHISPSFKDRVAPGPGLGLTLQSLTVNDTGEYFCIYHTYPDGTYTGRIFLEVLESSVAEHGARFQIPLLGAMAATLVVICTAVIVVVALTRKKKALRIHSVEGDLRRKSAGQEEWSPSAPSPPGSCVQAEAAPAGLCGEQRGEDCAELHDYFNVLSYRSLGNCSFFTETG
Briefly: FACS on CHO cells expressing human TIGIT, FITC anti-hIgG detection. The procedure: as §1

Assay [9] concerns the target T3, cynomolgus TIGIT on CHO cells. The assay is described as follows: FACS blocking assay: labelled PVR-Fc (blocked ligand) on CHO cells expressing cyno TIGIT. Here is the method:
(§2) These studies were further validated in CHO-TIGIT PVR blocking experiments in which TIGIT-expressing CHO cells were incubated with labeled PVR-Fc fusion protein in the presence of anti-TIGIT antibody or an human IgG1 control (FIG. 4A).

Assay [10] concerns the target T4, full-length human TIGIT on CHO cells. Briefly: FACS blocking assay: labelled PVR-Fc (blocked ligand) on CHO cells expressing human TIGIT. Here is the method:
as §2

Assay [11] addresses T5, human TIGIT on activated human primary T cells (human, UniProt Q495A1 22-244).
T5 construct: also called Human T cell
T5 sequence: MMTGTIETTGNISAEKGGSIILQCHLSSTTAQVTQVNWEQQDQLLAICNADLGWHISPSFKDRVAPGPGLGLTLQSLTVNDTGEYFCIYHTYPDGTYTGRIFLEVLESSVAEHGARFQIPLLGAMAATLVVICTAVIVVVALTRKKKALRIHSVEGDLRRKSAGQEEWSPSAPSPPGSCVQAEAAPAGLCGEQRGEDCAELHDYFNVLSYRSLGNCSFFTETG
The assay is described as follows: FACS on activated human PBMC, CD4 T cells, FITC anti-hIgG detection. The procedure:
The OMT- and SD-derived anti-TIGIT clones were also tested for binding to human primary T cells by FACS analysis. Human PBMC were activated for with plate-bound anti-CD3 (5 μg/ml) and soluble anti-CD28 (2 μg/ml) for 2 days as described in Yu et al. Nature Immunology. 10: 48-57, 2009, which is incorporated herein by reference in its entirety. Cells were then washed and incubated with incubated with each anti-TIGIT antibody at the indicated concentrations and then detected via a FITC-labeled anti-hIgG antibody. Cells were also stained with anti-CD4, anti-CD8, and anti-CD25 (BD bioscience). Human CD4+(CD25+CD4+) and human CD8+(CD25+CD8+) T cells were assessed for binding by the anti-TIGIT clones by FACS. All samples were acquired on LSR-II or LSR-Fortessa instruments (BD Biosciences) and analyzed using FlowJo software (Treestar).

The target in assay [12] is T1, human TIGIT protein. The assay is described as follows: SPR, against h15C8.L1H1 (implied). Here is the method:
(§3) Briefly, a series S CM5 biosensor chip was activated with N-ethyl-N′-(3-dimethylaminopropyl)-carbodiimide hydrochloride (EDC) and N-hydroxysuccinimide (NHS) reagents according to the supplier's (GE Healthcare Biosciences, Piscataway, N.J.) instructions, and a human antibody capture kit was applied to couple goat anti-human Fc IgGs in order to achieve approximately 10,000 response units (RU) on each flow cell, followed by blocking un-reacted groups with 1M ethanolamine.
(§4) (flow rate: 30 μl/min) with no regeneration between injections. The sensorgrams were recorded and evaluated by BIAcore™ T200 Evaluation Software (version 2.0) after subtraction of reference cell signal. Association rates (kₒₙ) and dissociation rates (koff) were calculated using a simple one-to-one Langmuir binding model. The equilibrium dissociation constant (KD) was calculated as the ratio koff/kₒₙ.
(§5) The first humanized versions, h6B2, L1H1, h10A5.L1H1, h7E7, L1H1, and h15C8.L1H1, which contain both rat CDRs and framework residues at Vernier positions, and the fully humanized versions, h6B2.L2H5, h10A5.L4H4, h7E7.L5H9, and h15C8.L5H9, which contain only rat CDRs were subject to BIAcore affinity measurement by comparison with original rat antibodies, rat6B2, rat10A5, rat7E7 and rat 15C8. For binding affinity determinations of TIGIT antibodies against human TIGIT, cynomolgus monkey TIGIT and human alanine-scanned TIGIT mutants by single-cycle kinetics, Surface Plasmon Resonance (SRP) measurement with a BIACORE™-T200 instrument was used, as described above.

In assay [13] the target is T2, cynomolgus monkey (cyno) TIGIT protein. Briefly: SPR, against h15C8.L1H1 (implied). The procedure:
as §3, §4, §5

The target in assay [14] is T1, human TIGIT protein. Briefly: SPR, captured mAb.
Source text: (§6) To prevent unwanted pyroglutamate formation for clones 4.1A4, 4.1 D3, and 7.4A3 (also referred to as 1A4, 1 D3, and 4A3, respectively) and to resolve the issue of unpaired cysteine residues for clones 4.1A4 and 7.4A3, the following optimized anti-TIGIT antibody variants were generated: 4.1A4.C96S.Q1E, 4.1A4.C96Y.Q1E, 4.1 D3.Q1E, 7.4A3.C96S.Q1E, and 7.4A3.C96Y.Q1E (also referred to as 1A4.C96S.Q1E, 1A4.C96Y.Q1E, 1 D3.Q1E, 4A3.C96S.Q1E, and 4A3.C96Y.Q1E, respectively). As described below in Table 2, the affinities of these five optimized variants for human and cynomolgus monkey (cyno) TIGIT were then determined by Surface Plasmon Resonance (SRP) (BIACORE™ analysis) and compared to that of their respective parental clones.
as §3, §4
This is another data set of the same source.

In assay [15] the target is T2, cynomolgus monkey (cyno) TIGIT protein. Briefly: SPR, captured mAb.
Source text: as §6, §3, §4
This is another data set of the same source.

T3 sequence (A0A7N9I9V4 entry or part of it): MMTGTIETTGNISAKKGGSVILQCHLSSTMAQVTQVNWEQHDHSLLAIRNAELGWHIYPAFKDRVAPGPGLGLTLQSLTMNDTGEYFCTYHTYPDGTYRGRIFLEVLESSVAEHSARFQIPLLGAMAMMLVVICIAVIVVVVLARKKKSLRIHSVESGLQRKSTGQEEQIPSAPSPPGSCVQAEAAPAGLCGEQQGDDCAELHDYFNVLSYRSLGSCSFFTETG

B1: rat15C8 (antibody, V domains shown)
VH: EVQLQQSGPELQRPGASVKLSCKASGYTFTEHSIYWLKQRPKQSLEIIGRIDPKNGRTYFVDKFKNRATLTTNTSSNTAYMQLSSLTSEDTAIYFCARIDGFYFDFWGQGVMVTASS
VL: NIHLTQSPSLLSASVGDRVTLSCKGSQNVNKYLVWYQQKLGEAPKLLIYSTDNLQSGIPSRFSGSGSGTDYTLTISSLQPEDAATYFCYQYNNGFTFGSGTKLEIK
notes: SD rat-derived; rat V domains as FR/HVR pieces; also called 1.15C8; Chimeric 1.15C8
The term koff denotes a measure of how fast the partners let go of each other. As usually defined, the kon is a measure of how fast the partners come together. By EC50 (read off the curve) is commonly meant the concentration needed to bring the measured effect to its halfway point. In the case of B1, the Kd in assay [1] was 0.03 nM; in assay [2], 0.25 nM; in assay [3] it was at most 0.007 nM; in assay [4], at most 0.013 nM; in assay [5] it was 0.034 nM; in [6], 0.25 nM. The off-rate (koff) was 1.8e-05 s⁻¹ in assay [1] and 9.6e-05 s⁻¹ in assay [2]. Besides, the kon in assay [1] is 522000 M⁻¹ s⁻¹; in assay [2], 381000 M⁻¹ s⁻¹. For the same molecule, the “EC50 (read off the curve)” value is about 0.4 nM in assay [7] and about 0.3 nM in [8]. In addition, the “IC50 (read off the curve)” value in assay [9] is about 0.3 nM; in assay [10] it was about 0.4 nM.

B2: rat10A5 (antibody, V domains shown)
VH: QVSLKESGPGILQPSHTLSLTCSFSGFSLTTYGMGVSWIRQPSEKGLEWLASIWWNGNTYYNPSLRSRLTVSKDTSNDQAFLNVTSVDTTDTATYYCAHTGGAVITWFAYWGQGTLVTVSS
VL: NIVMTQSPKSMSISIGDRVTMNCKASQSVGKNIAWYQQKTGQSPQLLIYYASNRYTGVPDRFTGGGSGTDFTLTINSVQAEDAAFFYCQHIYNSPYPFGTGTKLEIK
notes: SD rat-derived; rat V domains as FR/HVR pieces; also called 1.10A5; Chimeric 1.10A5
With B2, the Kd was 0.09 nM in assay [1]; 0.41 nM in assay [2]; at most 0.003 nM in assay [3]; 0.013 nM in assay [4]; 0.093 nM in [5]; 0.41 nM in [6]. For the same molecule, the results for the koff in assay [1] and in assay [2] were 8.4e-05 s⁻¹ and 0.000281 s⁻¹, respectively. Besides, the kon in assay [1] was found to be 905000 M⁻¹ s⁻¹; in [2], 678000 M⁻¹ s⁻¹. Also, the results for the “EC50 (read off the curve)” value in [7], in assay [8] and in assay [11] were about 0.2 nM, about 0.2 nM and about 0.09 nM, respectively. Moreover, in assay [9], the “IC50 (read off the curve)” value is about 0.09 nM.

B3: h15C8.L5H9 (antibody, V domains shown)
VH: EVQLVQSGAEVKKPGASVKVSCKASGYTFTEHSIYWVRQAPGQRLEWMGRIDPKNGRTYFVDKFKNRVTITRDTSASTAYMELSSLRSEDTAVYYCARIDGFYFDFWGQGTLVTVSS
VL: DIQLTQSPSFLSASVGDRVTITCKGSQNVNKYLVWYQQKPGKAPKLLIYSTDNLQSGVPSRFSGSGSGTEFTLTISSLQPEDFATYYCYQYNNGFTFGQGTKVEIK
notes: Fully humanized version; FR/HVR pieces
Take B3: the Kd in assay [1] and in assay [2] was over 100 nM in each case. Further, the “fold drop in binding affinity” value in [12] and in assay [13] was over 100 fold in each case.

B4: 4.1A4 (antibody, V domains shown)
VH: QVQLVQSGSELKKPGASVKVSCKASGYTLTNYPMNWVRQAPGRGLEWMGWINTNTGSPAYAQDFTERFVFSLDTSVTTAYLQISSLKAEDTAVYYCARTAITSVYHFDYWGQGTLVTVSS
VL: DIQLTQSPSFLSASVGDRVTITCRASQGISSYLAWYQQKPGKAPRVLIYGATTLQSGVPSRFSGSESGTEFTLTISSLQPEDLATYYCQKLNSHPCSFGQGTKVEIK
notes: OMT rat-derived human antibody; also called 4.1A4.Q1.C96
Turning to B4, the Kd in [14] is 3.57 nM; in assay [15], 2.42 nM; in [3], 0.31 nM; in assay [4], 0.035 nM; in assay [5], 4.9 nM; in assay [6] it was 2.6 nM. Also, the koff amounted to 0.00122 s⁻¹ in assay [14] and 0.000643 s⁻¹ in assay [15]. The kon in [14] was 342000 M⁻¹ s⁻¹; in [15], 266000 M⁻¹ s⁻¹. For the same molecule, the “EC50 (read off the curve)” value in assay [7] was about 0.8 nM; in assay [8], about 1 nM; in assay [11], about 0.5 nM. In addition, in assay [10], the “IC50 (read off the curve)” value was about 0.2 nM.

These data come from patent publication US20220064286A1 (Genentech, published 2022).
